Patent publication US20200031911A1 (MEDANNEX, published 2020)

T1: human annexin A1 (Anx-A1) (human, UniProt P04083 2-346)
T1 construct: also called full-length human Anx-A1 (ANXA1-002 / ANXA1-003 transcripts)
T1 sequence: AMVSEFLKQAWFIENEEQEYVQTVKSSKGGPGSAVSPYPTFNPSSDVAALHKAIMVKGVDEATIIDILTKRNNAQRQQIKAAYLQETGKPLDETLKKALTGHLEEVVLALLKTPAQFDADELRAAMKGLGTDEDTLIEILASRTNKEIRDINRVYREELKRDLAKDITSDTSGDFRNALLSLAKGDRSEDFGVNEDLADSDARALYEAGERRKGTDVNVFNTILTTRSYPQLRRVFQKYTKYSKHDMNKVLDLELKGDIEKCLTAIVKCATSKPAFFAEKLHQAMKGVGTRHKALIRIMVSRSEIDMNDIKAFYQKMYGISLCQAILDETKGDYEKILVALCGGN


Legend:
[1] = biological target: T1, human annexin A1 (Anx-A1); experiment: Biacore SPR, assay 1 of 3, method of Example 4; first of three experiments
Description: (§1) The Mdx001 antibody was immobilised on a chip via a goat anti-mouse IgG. Ligand (Anx-A1) was passed over the immobilised antibody in running buffer. Anx-A1 was used at a concentration of 5, 10, 20, 40 or 80 nM. In each experiment, a total of 150 μl Anx-A1-containing running buffer was passed over the antibody, at a flow rate of 30 μl/min.
(§2) In light of the ELISA results, the LC1(mod 1)HC4 and LC2(mod 1)HC2 antibodies were discarded. […] Binding of LC1(mod 2)HC4 and LC2(mod 2)HC2 to Anx-A1 was quantified by Biacore, using the same method as described in Example 4. As in Example 4, the Biacore experiments were performed in triplicate. […] LC1(mod 2)HC4 was given the name MDX-L1M2H4. […] LC2(mod 2)HC2 was given the name MDX-L2M2H2.

[2] = biological target: T1, human annexin A1 (Anx-A1); experiment: Biacore SPR, assay 3 of 3, method of Example 4; third of three experiments
Description: as §1, §2

[3] = biological target: T1, human annexin A1 (Anx-A1); experiment: Biacore SPR, assay 2 of 3, method of Example 4; second of three experiments
Description: as §1, §2

[4] = biological target: T1, human annexin A1 (Anx-A1); experiment: Biacore SPR, average of three assays, method of Example 4; average of the three experiments
Description: as §1, §2

[5] = biological target: T1, human annexin A1 (Anx-A1); experiment: Biacore SPR, average of three assays; antibody captured, Anx-A1 as analyte
Description: as §1
(§3) Regeneration was performed using a regeneration buffer, 10 mM glycine-HCl, pH 2. To regenerate the chip, 70 μl regeneration buffer was passed over the chip at a rate of 10 μl/min.
(§4) Experiments were performed in triplicate.

[6] = biological target: T1, human annexin A1 (Anx-A1); experiment: Biacore SPR, assay 1 of 3; antibody captured via goat anti-mouse IgG, Anx-A1 at 5-80 nM as analyte, 1 mM CaCl2
Description: as §1, §3, §4

[7] = biological target: T1, human annexin A1 (Anx-A1); experiment: Biacore SPR, assay 2 of 3; antibody captured via goat anti-mouse IgG, Anx-A1 at 5-80 nM as analyte, 1 mM CaCl2
Description: as §1, §3, §4

[8] = biological target: T1, human annexin A1 (Anx-A1); experiment: Biacore SPR, assay 3 of 3; antibody captured via goat anti-mouse IgG, Anx-A1 at 5-80 nM as analyte, 1 mM CaCl2
Description: as §1, §3, §4

Kd [1] | Kd [2] | Kd [3] | Kd [4] | Kd [5] | Kd [6] | Kd [7] | Kd [8] | Binder
4.44 nM | 5.17 nM | 4.37 nM | 4.66 nM | – | – | – | – | MDX-L2M2H2 (antibody, human IgG1, kappa, V domains shown, also called LC2(mod 2)HC2; variant 1 of MDX-L2H2) VH: QVQLVQSGPEVKKPGESLKISCKGSGYTFTNYWIGWVRQAPGKGLEWMGDIYPGGDYTNYNEKFKGQVTISADKSISTAYLQWSSLKASDTAIYYCARWGLGYYFDYWGRGTLVTVSS VL: DIVMTQTPLSLSVTPGQPASISCRSSQSLENSNAKTYLNWYLQKPGQSPQLLIYGVSNRFSGVPDRFSGSGSGTDFTLKISRVEAEDVGVYYCLQVTHVPYTFGQGTKVEIKR
– | – | – | – | 8.49 nM | 9.43 nM | 9.58 nM | 6.46 nM | Mdx001 (antibody, mouse IgG2b, kappa, V domains shown, also called murine anti-Anx-A1 antibody) VH: QVQLQQSGPELVRPGTSVKMSCKASGYTFTNYWIGWAKQRPGHGLEWIGDIYPGGDYTNYNEKFKGKATLTADKSSSTAYMQFSSLTSEDSAIYYCARWGLGYYFDYWGQGITLTVSS VL: DAVMTQTPLSLPVSLGDQVSISCRSSQSLENSNGKTYLNWYLQKPGQSPQLLIYGVSNRFSGVLDRFSGSGSGTDFTLKISRVEAEDLGVYFCLQVTHVPYTFGGGTKLEIKR
